B1: 1051 (protein)
chain: MDGGPLFLSWQCTGGLRQTAYEIHLTADDALVWESGKVATQSMHADAPAVEGARVRGSWKVRLWDENNCPGPWSGARFETGLSTGEWQGLWVAPETAPLDIPGDDAINAFARPNWERKQAEKEAAGKGAAEPYQPHRPASYLRKTFTAPSGRGRLYITAKGLYVAWLNGVRVGDMVLAPGSFTADKHLGAQTYDVTALLREGENELLIALGDGWYRSTSGVDGDRNLFGDTLGVLFQLEVDGKVVCVSDDTMQATQQGPIRQNDLQQGEVYDARLEGLLSGWHEVQTYRDALPVTGMNTVPIREREAFPGRLFTAPNGETVLDFGQNIAGYVEMTLTAHAGQKVLLTCGETLDENGNFTQENFQDRSRHNEGGTAQMLELICKEGVNHWKPSFTIMGFQYAKVETDADLTGAVFTAHAVYSDMAVTGSFTCGNKAVNRLVANSIWSQKGNFCDIPTDCPTRERAGWTGDMGVFIETGLTLMDCYPVVAKWLKECRLNQYPDGRMANIAPPNSRPGYMTPMLCMSAGWGDAAILVPYALYKRTGDRRILADNYEMMQRWYAFLLGRAQQTTEEQQSGEYAKYTVLNGLDYGEWCEPGVTPMQAMANPRKSVGTAYLAYSGRLLAEIAAVLGRQEEADAYRATADKAVKAYRAAFTEDGVIHSDRQCEYVRAIAFALLGEEESRAAATTLNQMVVDNGCHLNTGFLSTPFLCGVLAQYGYIDTAYRLLLQPEAPGWLYEVNKGANTVWETWTGIDAEGKPHESLNHYSYGAICGWLFGGVCGIHFTDGQLTIAPTPHKALGYAKAVYDSPAGRIESGWRYEGDTVTYEFTIPTNITAHIHLPDGRTRMLSAGTHRL
modifications: Subdoligranulum variabile
B2: 1014 (protein, listed as Thermoclostridium stercorarium)
chain: MMRVYNLKTNRIKNPMGFVINKPKLSWLVESDTAKHQVAAQVEISADINFENIIFDSGKRTDIDSISYSPQVELKPRTRYYWRVRVWGDDGSEAVSEAAWFETSKMDEPWKAKWITPDFDPSVHPVVFTDFSIERDVADARAYVCGLGLYEMSVNGEKTGDEYLAPGLVAYDKWIPYQTYDITSQLKKGINTAEFLLGNGWYKGRYGLNRKQPFRYGNEFALICEIHITYQDGTADVIYTDTSWKARKSKVIDSGIYDGEIYDDTFCDDAVYPVRIADLDVNKLEPRRSPGIKIKERIKPAEIIRTPEGETVIDMGQNMVGWLEFTNRAPKGAEIMLQFGEVLQDGNFYRDNLRTAKCEFHYISDGKVKKVRPHFTFYGFRYVKLTKWEGEVNPEDFTGLVLYSDLERTGNITTDNSLVNRLFLNALWSQKGNFLDVPTDCPQRDERMGWTGDAQVFSGAAAFNMDVFAFFGKYLYDLKQEQKARGGNVPVVVPAHDVKQNGACGWGDAAVIIPWNMYLHYGDVSILEQQYKSMKGWVDYIKSKDDAAGGRRLWLNDFHYGDCVSLDVEDPFNRFGGTEHAYLASAFYSYSAGIVSKAAKILNKKEDAEYYRKLSEEVKNAIRKEYFTPTGRLAVNTQTAYVIALYMDLVPDEWKERVAFELRKKLKETKYHLRTGFLGTPYLCRVLSEYGSNDIAYRLLTNTDYPGWLYPVTMGATTIWERWNSMLPDGKVSDTGMNSFNHYSYGSIVEWIYRNAAGIQPVEDAPGFRRFRLKPQPHYLLKSLDAEFLSPAEKIISRWNINENGSVSFYFRIPFNTTAELVLPDTEVQDWKEFMSLNVVNILILTCLKDLTRKCTEQILQCGKFMKMRGQKKL

Experiments:
Type in all cases: biochemical, Quillaja saponaria
[1] = Experiment 6-1: screening of rhamnosidases for derhamnosylation of saponins in treated bark extract (2%), QS-17 2296 to QS-18 2150 (PAR %); conditions: TBE 2%, pH 7.5, 30 degC, 18 h; TIC peak area ratio percent of rhamnosylated starting saponin to derhamnosylated product, LCMS/MS; negative controls 4.876, 5.225
[2] = Experiment 6-1: screening of rhamnosidases for derhamnosylation of saponins in treated bark extract (2%), desglucosyl-QS-17 2134 to QS-21 1988 (PAR %); conditions: TBE 2%, pH 7.5, 30 degC, 18 h; TIC peak area ratio percent, LCMS/MS; negative controls 2.719, 2.158
[3] = Experiment 6-1: screening of rhamnosidases for derhamnosylation of saponins in treated bark extract (2%), QS-17 2310 to QS-18 2164 (PAR %); conditions: TBE 2%, pH 7.5, 30 degC, 18 h; TIC peak area ratio percent, LCMS/MS; negative controls 3.061, 2.429
[4] = Experiment 6-1: specificity of rhamnosidases towards other rhamnose residues (C3 saccharide rhamnose, C28 saccharide rhamnose); conditions: TBE 2%, pH 7.5, 30 degC, 18 h; LCMS/MS; negative controls 0.18, 0.17

Row | Molecule | QS-17 (PAR %) [1] | Peak75 (PAR %) [2] | Peak57 (PAR %) [3] | ratio PP/QS-21 [4]
1 | B1 | 5.289% | 2.426% | 2.918% | 0.16
2 | B2 | 5.309% | 2.741% | 3.359% | 0.18
